Patent US20260151494A1

Assays:
[1] = molecular target: apical domain of CD71 (Screen 3: 'cynomolgus apical domain of human CD71') (cynomolgus (as paragraph 454 words it; ambiguous)); assay: primary ELISA
[2] = molecular target: apical domain of CD71 (Screen 3: 'cynomolgus apical domain of human CD71') (cynomolgus (as paragraph 454 words it; ambiguous)); assay: primary ELISA, RLU ratio to HSA

Binder | RLU [1] | Apical domain:HSA [2]
CD71-binding FN3 domain SEQ ID NO: 235 (designed binder) MSLPAPKNLVVSRVTEDSARLSWTAPDAAFDSFEIVYAEPVRFGEAIVLTVPGSERSYDLTGLKPGTEYWVQIGGVKGGNWSAPLSAIFTT | 5.63e+06 RLU | 558
CD71-binding FN3 domain SEQ ID NO: 314 (designed binder) MGSLPAPKNLVVSRVTEDSARLSWTAPDAAFDSFEIGYFENLYLGEAIVLTVPGSERSYDLTGLKPGTEYWVQIGGVKGGNWSAPLSAIFTT | 5.25e+06 RLU | 427
CD71-binding FN3 domain SEQ ID NO: 331 (designed binder) MSLPAPKNLVVSRVTEDSARLSWTAPDAAFDSFFIGYLEPQPPGEAIHLYVPGSERSYDLTGLKPGTEYNVTIQGVKVGFPSEPLIANFTT | 6.24e+06 RLU | 701
CD71-binding FN3 domain SEQ ID NO: 234 (designed binder) MSLPAPKNLVVSRVTEDSARLSWTAPDAAFDSFFIGYLEPQPPGEAIALYVPGSERSYDLTGLKPGTEYNVTIQGVKGGFPSEPLVAHFTT | 7.51e+06 RLU | 798
CD71-binding FN3 domain SEQ ID NO: 333 (designed binder) MSLPAPENLVVSRVTEDSARLSWTAPDAAFDSFFIGYLEPQPPGEAIALYVPGSERSYDLTGLKPGTEYNVTIQGVKGGFPSLPLVATFTT | 6.2e+06 RLU | 171
CD71-binding FN3 domain SEQ ID NO: 310 (designed binder) MSLPAPKNLVVSRVTEDSARLSWTAPDAAFDSFEIDYGEYSQAGEAIGLLVPGSERSYDLTGLKPGTEYAVWIGGVKGGFFSTPLEADFTT | 4.83e+06 RLU | 168
CD71-binding FN3 domain SEQ ID NO: 297 (designed binder) MSLPAPKNLVVSRVTEDSARLSWTAPDAAFDSFEISYFENTWYGEAIVLTVPGSERSYDLTGLKPGTEYSVRIFGVKGGNFSFPLSAIFTT | 5.29e+06 RLU | 1030
CD71-binding FN3 domain SEQ ID NO: 313 (designed binder) MSLPAPKNLVVSRVTEDSARLSWTAPDAAFDSFEIAYFENDWAGEAIVLTIPGSERSYDLTGLKPGTEYWVQIGGVKGGNWSAPLSAIFTT | 5.17e+06 RLU | 835
CD71-binding FN3 domain SEQ ID NO: 327 (designed binder) MSLPAPKNLVVSRVTEDSARLSWTAPDAAFDSFEIGYWENAYKGEAIVLTVPGSERSYDLTGLKPGTEYWVQIGGVKGGNWSAPLSAIFTT | 4.24e+06 RLU | 227
CD71-binding FN3 domain SEQ ID NO: 304 (designed binder) MSLPAPKNLVVSRVTEDSARLSWTAPDAAFDSFEIGYFENLYLGEAIVLTVPGSERSYDLTGLKPGTEYVVFIGGVKGGVWSVPLSAIFTT | 5.5e+06 RLU | 446
CD71-binding FN3 domain SEQ ID NO: 300 (designed binder) MSLPAPKNLVVSRVTEDSARLSWTAPDAAFDSFEIGYFEATPNGEAIVLTVPGSERSYDLTGLKPGTEYKVFIGGVKGGRWSKPLSAIFTT | 5.57e+06 RLU | 406
CD71-binding FN3 domain SEQ ID NO: 323 (designed binder) MSLPAPKNLVVSRVTEDSARLSWTAPDAAFDSFEIGYFENLYLGEAIVLTVPGSERSYDLTGLKPGTEYWVQIGGVKGGNWSGPLSAIFTT | 4.22e+06 RLU | 95
CD71-binding FN3 domain SEQ ID NO: 301 (designed binder) MSLPAPKNLVVSRVTEDSARLSWTTPDAAFDSFEIGYFENLYLGEAIVLTVPGSERSYDLTGLKPGTEYWVQIGGVKGGNWSAPLSAIFTT | 4.53e+06 RLU | 216
CD71-binding FN3 domain SEQ ID NO: 309 (designed binder) MSLPAPENLVVSRVTEDSARLSWTAPDAAFDSFEIGYFENLYLGEAIVLTVPGSERSYDLTGLKPGTEYWVQIGGVKGGNWSAPLSAIFTT | 5.62e+06 RLU | 452
CD71-binding FN3 domain SEQ ID NO: 316 (designed binder) MSLPAPKNLVISRVTEDSARLSWTAPDAAFDSFEIGYFENLYLGEAIVLTVPGSERSYDLTGLKPGTEYWVQIGGVKGGNWSAPLSAIFTT | 4.44e+06 RLU | 442
CD71-binding FN3 domain SEQ ID NO: 312 (designed binder) MSLPAPKNLVVSRVTEDSARLSWTAPDAAFDSFEIGYFENLYLGEAIVLTIPGSERSYDLTGLKPGTEYWVQIGGVKGGNWSAPLSAIFTT | 5.31e+06 RLU | 556
CD71-binding FN3 domain SEQ ID NO: 322 (designed binder) MSLPAPKNLVVSRVTEDSARLSWTAPDAAFDSFEIGYFEITRYGEAIILFVPGSERSYDLTGLKPGTEYWVQIGGVKGGNWSAPLSAIFTT | 4.99e+06 RLU | 252
CD71-binding FN3 domain SEQ ID NO: 307 (designed binder) MSLPAPKNLVVSRVTEDSARLSWTAPDAAFNSFEIGYFENLYLGEAIVLTVPGSERSYDLTGLKPGTEYWVQIGGVKGGTFSAPLSAIFTT | 5.36e+06 RLU | 72

Binder | RLU [1] | Apical domain:HSA [2]
CD71-binding FN3 domain SEQ ID NO: 299 (designed binder) MSLPAPKNLVVSRVTEDSARLSWTAPDAAFDSFEIAYFENLYLGEAIVLTVPGSERSYDLTGLKPGTEYWVQIGGVKGGNWSAPLSAIFTT | 5.35e+06 RLU | 614
CD71-binding FN3 domain SEQ ID NO: 329 (designed binder) MSLPAPKNLVVSRVTEDSARLSWTAPDAAFDSFDIGYFEATYYGEAIVLTVPGSERSYDLTGLKPGTEYRVWIGGVKGGYYSNPLSAIFTT | 4.64e+06 RLU | 128
CD71-binding FN3 domain SEQ ID NO: 328 (designed binder) MSLPAPKNLVVSRVTEDSARLSWTAPDAAFDSFEIGYFGNLYLGEAIVLTVPGSERSYDLTGLKPGTEYWVQIGGVKGGNWSAPLSAIFTT | 3.7e+06 RLU | 42
CD71-binding FN3 domain SEQ ID NO: 305 (designed binder) MSLPAPKNLVVSRVTEDSARLSWTAPDAAFDSFEIAYFEQTYTGEAIVLTVPGSERSYDLTGLKPGTEYWVQIGGVKGGNWSAPLSAIFTT | 5.69e+06 RLU | 495
CD71-binding FN3 domain SEQ ID NO: 325 (designed binder) MSLPAPKNLVVSRVTEDSARLSWTAPDAAFDSFEIGYFENLYLGEAIVLTVPGSERSYDLTGLKPGTEYWVQIGGVKGGNWSAPLSEIFTT | 4.37e+06 RLU | 205
CD71-binding FN3 domain SEQ ID NO: 315 (designed binder) MSLPAPKNLVVSRVTEDSARLSWTAPDAAFDSFEIGYFENLYLGEAIVLTVPGSERSYDLTGLKPGTEYWVQIGGVKGGNWSAPLSAISTT | 4.4e+06 RLU | 73
CD71-binding FN3 domain SEQ ID NO: 236 (designed binder) MSLPAPKNLVVSRVTEDSARLSWTEPDAAFDSFEIGYFENLYLGEAIVLTVPGSERSYDLTGLKPGTEYWVQIGGVKGGNWSAPLSAIFTT | 5.32e+06 RLU | 164
CD71-binding FN3 domain SEQ ID NO: 330 (designed binder) MSLPAPKNLVVSRVTEDSARLSWTAPDAAFDSFEIGYFENLYLGEAIVLTVPGSERSYDLTGLKPGTEYWVQIGGVKGGNWSAPLSAIVTT | 4.31e+06 RLU | 92
CD71-binding FN3 domain SEQ ID NO: 298 (designed binder) MSLPAPKNLVVSRVTEDSARLSWTAPDAAFDSFEIGYFENLYLGEAIVLTVPGSERSYDLTGLKPGTEYWVQIGGVKGDNWSAPLSAIFTT | 5.3e+06 RLU | 414
CD71-binding FN3 domain SEQ ID NO: 332 (designed binder) MSLPAPKNLVVSRVTEDSARLSWTAPDAAFDSFEIGYWEGPGGGEAIILVVPGSERSYDLTGLKPGTEYYVQIGGVKGGDWSTPLWATFTT | 4.94e+06 RLU | 380
CD71-binding FN3 domain SEQ ID NO: 303 (designed binder) MSLPAPKNLVVSRVTEDSARLSWTAPDAAFDSFWIEYWEGWKSGEAIVLTVPGSERSYDLTGLKPGTEYRVHIWGVKGGIVSWPLSAIFTT | 5.6e+06 RLU | 636
CD71-binding FN3 domain SEQ ID NO: 306 (designed binder) MSLPAPKNLVVSRVTEDSARLSWTAPDAAFDSFEIGHFENLYLGEAIVLTVPGSERSYDLTGLKPGIEYWVQIGGVKGGVWSVSLSAIFTT | 4.74e+06 RLU | 320
CD71-binding FN3 domain SEQ ID NO: 326 (designed binder) MSLPAPKNLVVSRVTEDSARLSWTAPDAAFDSFEIGYWENAYKGEAIVLTVPGSERSYDLTGLKPGTEYWVQIGGVKGGVWSTPLSAIFTT | 4.07e+06 RLU | 215
CD71-binding FN3 domain SEQ ID NO: 308 (designed binder) MSLPAPKNLVVSRVTEDSARMSWTTPDAAFDSFEIGYFENLYLGEAIVLTVPGSERSYDLTGLKPGTEYWVQIGGVKGGNWSAPLSAIFTT | 5.26e+06 RLU | 188
CD71-binding FN3 domain SEQ ID NO: 320 (designed binder) MSLPVPKNLVVSRVTEDSARLSWTAPDAAFDSFEIGYWENAYKGEAIVLTVPGSERSYDLTGLKPGTEYWVQIGGVKGGNWSAPLSAIFTT | 3.99e+06 RLU | 290
CD71-binding FN3 domain SEQ ID NO: 324 (designed binder) MSLPAPKNLVVSRITEDSARLSWTAPDAAFDSFEIGYFENLYLGEAIVLTVPGSERSYDLTGLKPGTEYWVQIGGVKGGNWSAPLSAISTT | 4.92e+06 RLU | 462
CD71-binding FN3 domain SEQ ID NO: 319 (designed binder) MSLPAPKNLVVSRVTEDSARLSWTAPGAAFDSFEIGYFENLYLGEAIVLTVPGSERSYDLTGLKPGTEYWVQIGGVKGGVWSVPLSAIFTT | 4.57e+06 RLU | 187
CD71-binding FN3 domain SEQ ID NO: 311 (designed binder) MSLPAPKNLVVSRVTEDSARLSWTAPDAAFDSFEIGYWENAYKGEAIVLTVPGSERSYDLTGLKPGTEYVVFIGGVKGGSWSNPLSAIFTT | 4.66e+06 RLU | 260
